B1: HDV Ribozyme (parent)
chain: GGCCGGCAUGGUCCCAGCCUCCUCGCUGGCGCCGGCUGGGCAACAUUCCGAGGGGACCGUCCCCUCGGUAAUGGCGAAUGGGACCCA

Variants of: B1
Experiment: self-cleavage, relative activity (ratio to wild type); higher = more cleavage; co-transcriptional
Variant G28A C36A has a self-cleavage of 0.203. G28A C36U gave a self-cleavage of 0.0811. G28A C48U gave a self-cleavage of 0.0997. In the case of G28A C61A, the self-cleavage is reported as 0.0791. For G28A C61G, the self-cleavage was 0.133. Work on G28A C63U yielded a self-cleavage of 0.107. In the case of G28A C66A, the self-cleavage is reported as 0.0811. In the case of G28A C75G, the self-cleavage is reported as 0. In the case of G28A C75U, the self-cleavage is reported as 0.0563. In the case of G28A C84U, the self-cleavage is reported as 0.0744. With G28A C86G the self-cleavage was 0.0678. In the case of G28A G31A, the self-cleavage is reported as 0.101. G28A G34A gave a self-cleavage of 0.175. In the case of G28A G34C, the self-cleavage is reported as 0.0536. G28A G35A gave a self-cleavage of 0.0608. G28A G35C showed a self-cleavage of 0.153. G28A G38C showed a self-cleavage of 0.0978. For G28A G39A, the self-cleavage was 0.187. Work on G28A G39C yielded a self-cleavage of 0.106. G28A G52C showed a self-cleavage of 0.0773. G28A G53A showed a self-cleavage of 0.02. For G28A G53C, the self-cleavage was 0.0831. G28A G54C gave a self-cleavage of 0.237. G28A G55U showed a self-cleavage of 0.056. Work on G28A G67C yielded a self-cleavage of 0.0519. Variant G28A G68A has a self-cleavage of 0.124. G28A G68C gave a self-cleavage of 0.0692. For G28A G73A, the self-cleavage was 0.112. Work on G28A G74A yielded a self-cleavage of 0.131. In the case of G28A G81A, the self-cleavage is reported as 0.101. For G28A G82A, the self-cleavage was 0.0604. Variant G28A U37A has a self-cleavage of 0.0773. In the case of G28A U47C, the self-cleavage is reported as 0.0739. G28A U65C showed a self-cleavage of 0.0415. Variant G28A U69A has a self-cleavage of 0.166. With G28A U69C the self-cleavage was 0.0361. For G28A U72G, the self-cleavage was 0.107. Work on G28A U79C yielded a self-cleavage of 0.0542. Variant G28C has a self-cleavage of 0.0814. G28C A42C showed a self-cleavage of 0.0437. With G28C A43C the self-cleavage was 0.0573. G28C A43G showed a self-cleavage of 0.0573. Work on G28C A51C yielded a self-cleavage of 0. G28C A51G gave a self-cleavage of 0.0723. G28C A71U showed a self-cleavage of 0.0426. G28C A77C gave a self-cleavage of 0.229. G28C A78G gave a self-cleavage of 0.26. For G28C C30A, the self-cleavage was 0. For G28C C30G, the self-cleavage was 0.101. With G28C C36A the self-cleavage was 0.0462. Variant G28C C41G has a self-cleavage of 0. With G28C C41U the self-cleavage was 0.0437. G28C C44A gave a self-cleavage of 0.0475. With G28C C44U the self-cleavage was 0. G28C C48A gave a self-cleavage of 0.166. G28C C49A gave a self-cleavage of 0.166. Variant G28C C49G has a self-cleavage of 0.119. G28C C57U gave a self-cleavage of 0.0277. In the case of G28C C58U, the self-cleavage is reported as 0.0369. For G28C C61A, the self-cleavage was 0.0755. For G28C C61G, the self-cleavage was 0.158. For G28C C63A, the self-cleavage was 0.17. Work on G28C C63G yielded a self-cleavage of 0.101. With G28C G29A the self-cleavage was 0.0692. With G28C G31U the self-cleavage was 0.244. For G28C G38C, the self-cleavage was 0.0426. G28C G38U showed a self-cleavage of 0.162. For G28C G39U, the self-cleavage was 0.125. With G28C G40A the self-cleavage was 0.148. G28C G40U gave a self-cleavage of 0.032. For G28C G50A, the self-cleavage was 0.151. With G28C G55C the self-cleavage was 0.0692. G28C G59C gave a self-cleavage of 0.212. Variant G28C G73A has a self-cleavage of 0. For G28C G76A, the self-cleavage was 0.106. G28C G80C showed a self-cleavage of 0.166. Work on G28C G80U yielded a self-cleavage of 0.123. With G28C G81U the self-cleavage was 0.0639. G28C U60A showed a self-cleavage of 0.104. With G28C U60G the self-cleavage was 0. For G28C U65C, the self-cleavage was 0.101. G28C U79G showed a self-cleavage of 0.246. In the case of G28U, the self-cleavage is reported as 0.108. Variant G28U A43U has a self-cleavage of 0.0615. G28U A45C gave a self-cleavage of 0.148. In the case of G28U A51C, the self-cleavage is reported as 0.222. In the case of G28U A51G, the self-cleavage is reported as 0.117. With G28U A56C the self-cleavage was 0. G28U A71C gave a self-cleavage of 0. With G28U A77U the self-cleavage was 0.0707. Variant G28U A78G has a self-cleavage of 0.158. With G28U A83C the self-cleavage was 0.0811. For G28U A87G, the self-cleavage was 0.0817. G28U A87U showed a self-cleavage of 0.116. Variant G28U C32A has a self-cleavage of 0.0496. For G28U C33G, the self-cleavage was 0.212. In the case of G28U C48G, the self-cleavage is reported as 0.161. Variant G28U C49A has a self-cleavage of 0.0297. G28U C49U showed a self-cleavage of 0.0639. G28U C61U gave a self-cleavage of 0.193. Work on G28U C63A yielded a self-cleavage of 0.0978. For G28U C63G, the self-cleavage was 0.262. With G28U C64G the self-cleavage was 0.102. With G28U C64U the self-cleavage was 0.0733. G28U C66U gave a self-cleavage of 0.19. For G28U C84G, the self-cleavage was 0.13. G28U C85A gave a self-cleavage of 0.203. For G28U G29U, the self-cleavage was 0.107. In the case of G28U G31U, the self-cleavage is reported as 0.0923. For G28U G34A, the self-cleavage was 0.0496. Work on G28U G38U yielded a self-cleavage of 0.14. G28U G40A showed a self-cleavage of 0.104. Variant G28U G52C has a self-cleavage of 0.154. Work on G28U G55C yielded a self-cleavage of 0.138. For G28U G67U, the self-cleavage was 0.137. With G28U G80U the self-cleavage was 0.1. Variant G28U G81A has a self-cleavage of 0.158. For G28U G81C, the self-cleavage was 0.0282. G28U G82A gave a self-cleavage of 0.191. With G28U G82C the self-cleavage was 0.0272. With G28U U46A the self-cleavage was 0.111. With G28U U47C the self-cleavage was 0.297. In the case of G28U U65A, the self-cleavage is reported as 0.0339. In the case of G28U U72C, the self-cleavage is reported as 0.0898. For G28U U72G, the self-cleavage was 0.0554. With G29A A43C the self-cleavage was 0.0978. Variant G29A A51C has a self-cleavage of 0.121. G29A A56U showed a self-cleavage of 0.111. G29A A71C showed a self-cleavage of 0.089. G29A A77C gave a self-cleavage of 0.111. G29A A87C showed a self-cleavage of 0.0602. G29A A87G gave a self-cleavage of 0.135. In the case of G29A A87U, the self-cleavage is reported as 0.155. In the case of G29A C30G, the self-cleavage is reported as 0.0415. Work on G29A C32G yielded a self-cleavage of 0.0219. G29A C33G showed a self-cleavage of 0.0346. For G29A C33U, the self-cleavage was 0.111. G29A C36U gave a self-cleavage of 0.0264. Variant G29A C49G has a self-cleavage of 0.225. G29A C61U gave a self-cleavage of 0.274. Variant G29A C62G has a self-cleavage of 0.169. Work on G29A C66G yielded a self-cleavage of 0.204. In the case of G29A C75A, the self-cleavage is reported as 0.0852. For G29A C84G, the self-cleavage was 0.102. For G29A C85A, the self-cleavage was 0.17. Work on G29A C86A yielded a self-cleavage of 0.155. With G29A G31A the self-cleavage was 0.0723. G29A G31C gave a self-cleavage of 0.154. Work on G29A G31U yielded a self-cleavage of 0.0272. In the case of G29A G34U, the self-cleavage is reported as 0.0601. For G29A G35A, the self-cleavage was 0.0923. For G29A G38A, the self-cleavage was 0.0623. Variant G29A G38C has a self-cleavage of 0.0292. With G29A G40C the self-cleavage was 0.0656. Work on G29A G40U yielded a self-cleavage of 0.0831. G29A G50C gave a self-cleavage of 0.121. For G29A G55C, the self-cleavage was 0.0563. G29A G59A showed a self-cleavage of 0.179. For G29A G59C, the self-cleavage was 0.123. With G29A G73A the self-cleavage was 0.143. G29A G73C showed a self-cleavage of 0.0639. In the case of G29A G74A, the self-cleavage is reported as 0.0773. For G29A G76A, the self-cleavage was 0.328. With G29A G76U the self-cleavage was 0.428. Work on G29A G80U yielded a self-cleavage of 0.0283. G29A G82C gave a self-cleavage of 0.0627. For G29A U37C, the self-cleavage was 0.17.

— the RNAGym collection of RNA variant scans (doi:10.7554/elife.80360)
